Results from patent publication US8530168B2, “Fusion protein comprising a Caspase domain and a nuclear hormone receptor binding domain and methods and uses thereof” (Helmholtz Zentrum Munich Deutsches Forschungszentrum fuer …, priority 2007, dated 2013).

Columns and labels:
Pac2 cells = experiment: Transient cotransfection with β-galactosidase reporter into Pac2 cells; format: cell-based, zebrafish; conditions: 10^−8 M 4-OH-tamoxifen, Cre-ER(T2) as reference, range given jointly for HeLa and Pac2
Description: (§1) Results are shown as mean values of triplicate samples with standard deviation. (b) Transient cotransfection of a β-galactosidase reporter with a Cre-ER(T2), myrCasp8-ER(T2), or Casp9-ER(T2) expression plasmid into murine M5/N9 (black columns), human HeLa (grey columns) or zebrafish Pac2 (open columns) cells. 12 h following transfection, cells were cultured for 36 h with 4-OH-tamoxifen at 10^−8 M and the activity of β-galactosidase in cell lysates was determined. Values obtained from transfections of the Cre-ER(T2) vector were defined as reference. Results are shown as mean values of triplicate samples with standard deviation.
PAC2 zebrafish fibroblasts were grown in Leibowitz's L15—with L-Glutamine medium supplemented with 1% Non-essential Amino Acids, 1% Penicillin/Streptomycin and 10% fetal calf serum (all Gibco) at 28° C. 3×10^6 Cells were transiently transfected with the plasmids CMVβ together with CAG-CreER(T2), CAG-myrCasp8ER(T2) or CAG-Casp9ER(T2) (500 ng each) using nanofectin transfection reagent (PAA). 24 hrs after transfection the medium was replaced and conditioned with 10^−8 M 4-OH-tamoxifen. Before lysis, the cells were incubated for another 24 hrs at 28°. […]

HeLa cells = experiment: Transient cotransfection with β-galactosidase reporter into HeLa cells; format: cell-based, human; conditions: 10^−8 M 4-OH-tamoxifen, Cre-ER(T2) as reference, range given jointly for HeLa and Pac2
Description: as §1
Transient transfections into M5/N9 and HeLa cells were performed with FuGene transfection reagent (Roche) following the manufacturer's instructions. Briefly, semiconfluent cultures in a 24-well plate were transfected in triplicate with 112 ng of the β-galactosidase expression vector CMVβ(Invitrogen) and the same amount of pCAG-Cre-ER(T2), pCAG-Casp8-ER(T2) or pCAG-Casp9-ER(T2) plasmid DNA. After 12 h 4-OH-tamoxifen was added at a concentration of 10^−8 M and the cultures were lysed at 48 h. Cell lysis and the measurement of β-galactosidase activity by chemiluminescence were performed with the β-galactosidase reporter gene assay (Roche) using a Centro LB960 plate luminometer (Berthold). […]

MEF5/N9 cells = experiment: TUNEL in situ cell death detection assay of MEF5/N9 clones; format: cell-based, mouse; conditions: 10^−8 M 4-OH-tamoxifen
Description: TUNEL, or terminal deoxynucleotidyl transferase-mediated dUTP nick end-labeling, is acknowledged as a method of choice in the rapid detection of DNA fragmentation that results from apoptotic signaling cascades (Gavrieli et al., J. Cell Biol., 119(3), 493-501 (1992)). Cleavage of genomic DNA during apoptosis may yield double-stranded, low molecular weight DNA fragments as well as single strand breaks (“nicks”) in high molecular weight DNA. Those DNA strand breaks can be identified by terminal deoxynucleotidyl transferase (TdT), which catalyzes polymerization of labeled nucleotides to free 3′-OH DNA ends in a template-independent manner. To detect 4-OH-tamoxifen induced cell death in MEF5/N9 cells, we applied the In Situ Cell Death Detection Kit, POD by Roche according to the manufacturer's instructions. Incorporated fluorescein is detected by anti-fluorescein antibody, conjugated with horse-radish peroxidase (POD). After substrate reaction, stained cells can be analyzed under light microscopy.
Two days prior to the TUNEL staining, round glass cover slips ([…]) were sterilized with 70% EtOH, dried under laminar flow and coated with Poly-L-lysine at a concentration of 50 μg/ml over night at 37° C., which allows a better attachment of cells on the cover slips. The following day, the cover slips were rinsed 3 times with PBS and dried for 1 hour under laminar flow. 2.5·10^5 cells were seeded onto cover slips in a 6-well plate. On the test day, medium was replaced either by fresh medium or medium supplemented with 10^−8 M 4-OH-tamoxifen. […] After fixation, cells were rinsed three times in PBS, covered with 100% methanol and incubated for 10 min or over night in a freezer and rinsed in PBS. Endogenous peroxidase activity was blocked by immersing cover slips for 10 min in 3% H2O2 in methanol prior to cell permeabilization. Cells were subsequently rinsed with PBS and incubated in permeabilization solution (0.1% Triton X-100 in freshly prepared 0.1% sodium citrate) for 2 min on ice. To generate a positive control, DNA strand breaks were induced by incubating permeabilized cells with 2 U/ml DNase I in 50 mM Tris-HCl, pH 7.5, 10 mM MgCl2, 1 mg/ml BSA for 10 min at room temperature, prior to labeling procedure. Cover slips were rinsed twice with PBS before incubating each sample with 25 μl TUNEL reaction mixture for 60 min at 37° C. in a humidified atmosphere in the dark. To avoid evaporative loss, cover slips were covered with parafilm. For a negative control 25 μl of Label solution without enzyme solution were added. Following labeling, cover slips were rinsed 3 times with PBS for 10 min each. To convert the fluorescence signal to a chromogenic signal, 25 μl of the POD solution were added on each sample which was covered with parafilm and incubated in a humidified chamber for 30 min at 37° C. Subsequently, cover slips were rinsed 3 times with PBS and incubated in freshly prepared 0.05% DAB in 0.1 M Tris-HCl (pH 7.4) supplemented with 0.02% H2O2 for 10-20 min at room temperature. The conversion procedure was controlled under a light microscope. The reaction was stopped with PBS until brown precipitates were well visible inside the cells. To remove DAB, cover slips were rinsed several times in PBS. Optionally, nuclear staining was performed by incubating cover slips for 15 min in 2.5 μg/ml DAPI diluted in PBS. Cover slips were mounted with a water-soluble, non-fluorescing mounting medium (Aqua-Poly/Mount; Polysciences Inc., Eppelheim, Germany) under SuperFrost slides (VWR International). Prior to the analysis of the samples under a light microscope, mounting medium was dried for 24 hours at room temperature.
To provide direct evidence for 4-OH-tamoxifen-induced apoptosis in MEF5/N9 clones expressing Caspase-8 or -9 fusion proteins, an in situ application of the TUNEL assay was performed. This method detects DNA fragmentation, one of the late events that result from apoptotic signaling cascades. […]

B1: Casp9full-ER(T2): full length murine Caspase-9 fused to ER(T2) ligand binding domain, SEQ ID NO: 29 (protein)
chain: MDEADRQLLRRCRVRLVSELQVAELWDALLSRELFTRDMIEDIQQAGSGSRRDQARQLVTDLETRGRQALPLFISCLEDTGQGTLASLLQSGRQAAKQDPEAVKPLDHLVPVVLGPMGLTAKEQRVVKLDPSQPAVGNLTPVVLGPEELWPARLKPEVLRPETPRPVDIGSGGAHDVCVPGKIRGHADMAYTLDSDPCGHCLIINNVNFCPSSGLGTRTGSNLDRDKLEHRFRWLRFMVEVKNDLTAKKMVTALMEMAHRNHRALDCFVVVILSHGCQASHLQFPGAVYGTDGCSVSIEKIVNIFNGSGCPSLGGKPKLFFIQACGGEQKDHGFEVACTSSQGRTLDSDSEPDAVPYQEGPRPLDQLDAVSSLPTPSDILVSYSTFPGFVSWRDKKSGSWYIETLDGILEQWARSEDLQSLLLRVANAVSAKGTYKQIPGCFNFLRKKLFFKTSVEPSAGDMRAANLWPSPLMIKRSKKNSLALSLTADQMVSALLDAEPPILYSEYDPTRPFSEASMMGLLTNLADRELVHMINWAKRVPGFVDLTLHDQVHLLECAWLEILMIGLVWRSMEHPVKLLFAPNLLLDRNQGKCVEGMVEIFDMLLATSSRFRMMNLQGEEFVCLKSIILLNSGVYTFLSSTLKSLEEKDHIHRVLDKITDTLIHLMAKAGLTLQQQHQRLAQLLLILSHIRHMSNKGMEHLYSMKCKNVVPLYDLLLEAADAHRLHAPTSRGGASVEETDQSHLATAGSTSSHSLQKYYITGEAEGFPATA
modifications: fusion protein Casp9full-ER(T2)
- reduction of β-Galactosidase activity in presence of 4-OHT (Pac2 cells): 91-93%
- reduction of β-Galactosidase activity in presence of 4-OHT (HeLa cells): 91-93%
- TUNEL result / apoptotic morphology (in words) (MEF5/N9 cells; 3 or 7 hours): typical apoptotic morphology
- incubation time with 4-OH-tamoxifen at which TUNEL positive cells were detected (MEF5/N9 cells; fixation at 2, 3, 5 and 7 hours): 3 h
